From publication PMC8214142 (The Biochemical journal, 2021)
* marks the point of attachment. Biotin = O=C1N[C@H]2[C@H](CS[C@H]2CCCCC(=O)*)N1

Each binder was assayed against T1, WD40 repeat protein 5 (WDR5), human (human, UniProt P61964 1-334) (assay: SPR).

koff | kon | Binder
0.009 s⁻¹ | 490000 M⁻¹ s⁻¹ | {sulforhodamine B}-GGSGGSGGSVNPTGCARSEPKMS-NH2 [Sulforhodamine B-(GGS)3MLL3Win-NH2]
0.012 s⁻¹ | 370000 M⁻¹ s⁻¹ | {sulforhodamine B}-GGSGGSGGSINPTGCARSEPKIL-NH2 [Sulforhodamine B-(GGS)3MLL2Win-NH2]
0.024 s⁻¹ | 340000 M⁻¹ s⁻¹ | {sulforhodamine B}-GGSGGSGGSEHVTGCARSEGFYT-NH2 [Sulforhodamine B-(GGS)3SETd1BWin-NH2]
0.11 s⁻¹ | 310000 M⁻¹ s⁻¹ | {sulforhodamine B}-GGSGGSGGSEHQTGSARSEGYYP-NH2 [Sulforhodamine B-(GGS)3SETd1AWin-NH2]
0.041 s⁻¹ | 210000 M⁻¹ s⁻¹ | {sulforhodamine B}-GGSGGSGGSLNPHGAARAEVYLS-NH2 [Sulforhodamine B-(GGS)3MLL4Win-NH2]

The binders below were run against T1, WD40 repeat protein 5 (WDR5), human (assay: BLI).

Kd | koff | kon | Binder
620 nM | 0.051 s⁻¹ | 82000 M⁻¹ s⁻¹ | Biotin-GGSGGSGGSEHQTGSARSEGYYP-NH2 (SMILES C[C@H](NC(=O)[C@H](CO)NC(=O)CNC(=O)[C@@H](NC(=O)[C@H](CCC(N)=O)NC(=O)[C@H](Cc1c[nH]cn1)NC(=O)[C@H](CCC(=O)O)NC(=O)[C@H](CO)NC(=O)CNC(=O)CNC(=O)[C@H](CO)NC(=O)CNC(=O)CNC(=O)[C@H](CO)NC(=O)CNC(=O)CNC(=O)CCCC[C@@H]1SC[C@@H]2NC(=O)N[C@@H]21)[C@@H](C)O)C(=O)N[C@@H](CCCNC(=N)N)C(=O)N[C@@H](CO)C(=O)N[C@@H](CCC(=O)O)C(=O)NCC(=O)N[C@@H](Cc1ccc(O)cc1)C(=O)N[C@@H](Cc1ccc(O)cc1)C(=O)N1CCC[C@H]1C(N)=O) [Biotinyl-(GGS)3SETd1AWin-NH2]
250 nM | 0.017 s⁻¹ | 71000 M⁻¹ s⁻¹ | Biotin-GGSGGSGGSEHVTGCARSEGFYT-NH2 (SMILES CC(C)[C@H](NC(=O)[C@H](Cc1c[nH]cn1)NC(=O)[C@H](CCC(=O)O)NC(=O)[C@H](CO)NC(=O)CNC(=O)CNC(=O)[C@H](CO)NC(=O)CNC(=O)CNC(=O)[C@H](CO)NC(=O)CNC(=O)CNC(=O)CCCC[C@@H]1SC[C@@H]2NC(=O)N[C@@H]21)C(=O)N[C@H](C(=O)NCC(=O)N[C@@H](CS)C(=O)N[C@@H](C)C(=O)N[C@@H](CCCNC(=N)N)C(=O)N[C@@H](CO)C(=O)N[C@@H](CCC(=O)O)C(=O)NCC(=O)N[C@@H](Cc1ccccc1)C(=O)N[C@@H](Cc1ccc(O)cc1)C(=O)N[C@H](C(N)=O)[C@@H](C)O)[C@@H](C)O) [Biotinyl-(GGS)3SETd1BWin-NH2]
1700 nM | 0.039 s⁻¹ | 23000 M⁻¹ s⁻¹ | Biotin-GGSGGSGGSLNPHGAARAEVYLS-NH2 (SMILES CC(C)C[C@H](NC(=O)[C@H](Cc1ccc(O)cc1)NC(=O)[C@@H](NC(=O)[C@H](CCC(=O)O)NC(=O)[C@H](C)NC(=O)[C@H](CCCNC(=N)N)NC(=O)[C@H](C)NC(=O)[C@H](C)NC(=O)CNC(=O)[C@H](Cc1c[nH]cn1)NC(=O)[C@@H]1CCCN1C(=O)[C@H](CC(N)=O)NC(=O)[C@H](CC(C)C)NC(=O)[C@H](CO)NC(=O)CNC(=O)CNC(=O)[C@H](CO)NC(=O)CNC(=O)CNC(=O)[C@H](CO)NC(=O)CNC(=O)CNC(=O)CCCC[C@@H]1SC[C@@H]2NC(=O)N[C@@H]21)C(C)C)C(=O)N[C@@H](CO)C(N)=O) [Biotinyl-(GGS)3MLL4Win-NH2]
100 nM | 0.0053 s⁻¹ | 54000 M⁻¹ s⁻¹ | Biotin-GGSGGSGGSVNPTGCARSEPKMS-NH2 (SMILES CSCC[C@H](NC(=O)[C@H](CCCCN)NC(=O)[C@@H]1CCCN1C(=O)[C@H](CCC(=O)O)NC(=O)[C@H](CO)NC(=O)[C@H](CCCNC(=N)N)NC(=O)[C@H](C)NC(=O)[C@H](CS)NC(=O)CNC(=O)[C@@H](NC(=O)[C@@H]1CCCN1C(=O)[C@H](CC(N)=O)NC(=O)[C@@H](NC(=O)[C@H](CO)NC(=O)CNC(=O)CNC(=O)[C@H](CO)NC(=O)CNC(=O)CNC(=O)[C@H](CO)NC(=O)CNC(=O)CNC(=O)CCCC[C@@H]1SC[C@@H]2NC(=O)N[C@@H]21)C(C)C)[C@@H](C)O)C(=O)N[C@@H](CO)C(N)=O) [Biotinyl-(GGS)3MLL3Win-NH2]
170 nM | 0.0077 s⁻¹ | 44000 M⁻¹ s⁻¹ | Biotin-GGSGGSGGSINPTGCARSEPKIL-NH2 (SMILES CC[C@H](C)[C@H](NC(=O)[C@H](CCCCN)NC(=O)[C@@H]1CCCN1C(=O)[C@H](CCC(=O)O)NC(=O)[C@H](CO)NC(=O)[C@H](CCCNC(=N)N)NC(=O)[C@H](C)NC(=O)[C@H](CS)NC(=O)CNC(=O)[C@@H](NC(=O)[C@@H]1CCCN1C(=O)[C@H](CC(N)=O)NC(=O)[C@@H](NC(=O)[C@H](CO)NC(=O)CNC(=O)CNC(=O)[C@H](CO)NC(=O)CNC(=O)CNC(=O)[C@H](CO)NC(=O)CNC(=O)CNC(=O)CCCC[C@@H]1SC[C@@H]2NC(=O)N[C@@H]21)[C@@H](C)CC)[C@@H](C)O)C(=O)N[C@@H](CC(C)C)C(N)=O) [Biotinyl-(GGS)3MLL2Win-NH2]
